Reference: article PMC11853025

How the values were obtained:
iC3b [1] = target: iC3b (UniProt P01024); assay: SPR; competitive: αI domains at 5 µM preincubated with simvastatin (3-100 µM), injected over immobilised iC3b or ICAM-1; HBST with 1 mM MgCl2 and 5% DMSO; signal as percent of the non-inhibited signal
iC3b [2] = target: iC3b (UniProt P01024); assay: SPR; C3b deposited on a CM5 chip (amine-coupled seed, then convertase-mediated deposition to about 5000 RU), iC3b and C3dg made from it on the chip; αI domains injected as dilution series, 120 s; Biacore T200, 25 °C; HBST (10 mM HEPES, 150 mM NaCl, 0.005% Tween-20, pH 7.4) with 1 mM MgCl2; Langmuir 1:1 fit, KD calculated
[3] = target: ICAM-1 (recombinant, Sino Biological 10346-H03H) (UniProt P05362); assay: SPR; competitive: αI domains at 5 µM preincubated with simvastatin (3-100 µM), injected over immobilised iC3b or ICAM-1; HBST with 1 mM MgCl2 and 5% DMSO; signal as percent of the non-inhibited signal
ICAM-1 (recombinant, Sino Biological 10346-H03H), sequence (P05362 28-480): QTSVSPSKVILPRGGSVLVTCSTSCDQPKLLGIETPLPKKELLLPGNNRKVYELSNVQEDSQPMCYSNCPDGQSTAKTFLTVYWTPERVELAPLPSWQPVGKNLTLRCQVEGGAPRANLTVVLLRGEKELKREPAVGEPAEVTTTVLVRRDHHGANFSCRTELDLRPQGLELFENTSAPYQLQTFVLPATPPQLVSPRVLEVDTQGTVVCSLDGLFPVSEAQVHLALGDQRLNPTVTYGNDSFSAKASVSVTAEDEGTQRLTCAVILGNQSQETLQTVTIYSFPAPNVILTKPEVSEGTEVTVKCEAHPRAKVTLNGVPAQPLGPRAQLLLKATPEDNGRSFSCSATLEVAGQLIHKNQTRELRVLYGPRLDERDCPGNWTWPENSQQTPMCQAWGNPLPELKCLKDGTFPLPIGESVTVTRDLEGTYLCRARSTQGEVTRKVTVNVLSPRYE

Row | residual binding activity with simvastatin (percent of the non-inhibited signal) (iC3b [1]) [%] | Kd (iC3b [2]) [µM] | residual binding activity with simvastatin (percent of the non-inhibited signal) [3] [%] | Substance
1 | 77 | 1.8 | – | CR3 αMI domain, high-affinity (HA) variant p.I332G (from UniProt P11215 146-334) (domain or fragment)
2 | – | 15 | – | CR3 αMI domain, wild type (WT) (from UniProt P11215 146-334) (domain or fragment)
3 | – | – | 83 | LFA-1 αLI domain, high-affinity (HA) variant p.K312C/K319C (domain or fragment)
